In PMC3260417 (Bioorganic Chemistry, 2011) one finds stoichiometry N and Km data, which are given here for 2 compounds.

The target in experiment [1] is 3-deoxy-D-arabino-heptulosonate 7-phosphate synthase from Aeropyrum pernix (Aeropyrum pernix). Put plainly: SEC.
Experiment [2] has as its target DAH7PS^Ap (DAHPS^Ap; 3-deoxy-D-arabino-heptulosonate 7-phosphate synthase) (Aeropyrum pernix, UniProt Q9YEJ7). The experiment in a line: initial rates, discontinuous periodate-thiobarbituric acid. The format is biochemical. Particulars: read-out: apparent Km; 3 mM PEP (saturating), pH 7.0, 60 °C; enzyme as isolated (Zn).

In general, stoichiometry N refers to the number of molecules, sites or subunits per partner or assembly. As for “3-deoxy-D-arabino-heptulosonate 7-phosphate synthase from Aeropyrum pernix (enzyme)”, in experiment [1], the stoichiometry N was 2.
As usually defined, the Km is the concentration of substrate that gives half-maximal velocity. With `O=C[C@H](O)[C@H](O)COP(=O)(O)O` [E4P], in experiment [2], the Km turned out to be 280 ± 20 µM.
